# Where a chain is given by its changes, count along the chain named.
# B1: 75110_14G10A (antibody, V domains shown)
# VH: EVQLVESGGGLVKPGGSLRLSCAASGFTFSSYSMNWVRQAPGKGLEWVSFISSSSSYIYYADSVKGRFTISRDNAKNSLYLQMNSLRAEDTAVYYCARERGDDYGDYEGAFDIWGQGTMVTVSS
# VL: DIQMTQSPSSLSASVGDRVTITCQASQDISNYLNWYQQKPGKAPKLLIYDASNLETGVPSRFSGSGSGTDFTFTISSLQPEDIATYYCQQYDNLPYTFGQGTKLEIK
# notes: Tested as non-clonal AlivaMab Mouse Kappa hybridoma supernatant (detected with anti-mouse Fc gamma and anti-human kappa)
# B2: 75110_10O16A (antibody, V domains shown)
# VH: EVQLVESGGGLVQPGGSLRLSCAASGFTFSNSDMHWVRQATGKGLEWVSTIGTAGDTYYPGSVKGRFTISRENAKNSLYLQMNSLRAGDTAVYYCARGGLYYYGMDVWGQGTTVTVSS
# VL: ENVLTQSPGTLSLSPGERATLSCRASQSVSSSYLAWYQQKPGQAPRLLIYGASSRATGIPDRFSGSGSGTDFTLTISRLEPEDFAVYYCHQFGSSPFTFGPGTKVDIK
# notes: Tested as non-clonal AlivaMab Mouse Kappa hybridoma supernatant (detected with anti-mouse Fc gamma and anti-human kappa); also called 75110_10016A
# B3: 75110_01E08A (antibody, V domains shown)
# VH: B2 VH with S30N, S32Y, G61A, S70Y, L100D
# VL: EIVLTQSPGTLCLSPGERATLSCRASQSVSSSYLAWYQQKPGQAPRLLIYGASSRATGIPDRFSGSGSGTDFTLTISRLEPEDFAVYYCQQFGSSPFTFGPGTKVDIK
# notes: as for B1
# B4: 75110_08K12A (antibody, V domains shown)
# VH: B2 VH with N31S, S32Y, K75E, V92L, G99D, L100Y
# VL: B2 VL with N2I, S32T, S54N, H90Q, S94T
# notes: as for B1
# B5: 75110_08F20A (antibody, V domains shown)
# VH: QVQLQESGPGLVKPSETLSLTCSVSGGSISTYYWSWIRQPAGKGLEWIGRICTTENTNYNPSLKSRVTMSIDSSKNQFSLKLSSVTAADTAVYYCARDLERLNYYGMDVWGQGATVTVSS
# VL: DIQMTQSPSSLSASVGDRVTITCQASQDISKYLNWYQQKPGIAPKLLIYDASNLETGVPSRFSGSGSGTDFTFTISSLQPEDFATYYCQQYDSLPITFGQGTRLEIK
# notes: as for B1
# B6: 75110_08G08A (antibody, V domains shown)
# VH: B5 VH
# VL: B5 VL with K31N, F83I
# notes: as for B1
# B7: 75110_07J02A (antibody, V domains shown)
# VH: EVQLVESGGGLVQPGGSLRLSCAASGFTFSSYWMSWVRQAPGKGLEWVANIKEDGSEKYYVDSVKGRFTISRDNAKNSLYLQMNSLRAEDTAVYYCARDGSYSGYGMDVWGQGTTVTVSS
# VL: AIQMTQSPSSLSASVGDRVTITCRASQGIRNDLGWYQQKPGKAPKLLIYAASSLQSGVPSRFSGRGSGTDFALTISSLQPEDFATYYCLLDYNYPYTFGQGTRLEIK
# notes: as for B1
# B8: 75110_06C16A (antibody, V domains shown)
# VH: QVQLQESGPGLVTPSETLSLSCTVSGGSISDYYWSWIRQPGGKGLEWIGRIYSSGSTNYNPSLKSRVTMSVDTSKNQFSLKLSSVTAADTAVYFCARDREDYYYYGMDVWGQGTTVTVSS
# VL: DIQMTQSPSSLSASVGDRVTITCQASHDISNYLNWYQQKPGKAPKLLIYAASNLETGVPSRFSGSGSGTDFSFTISSLQPEDIATYYCQQYDHLPLTFGGGTKVEIK
# notes: as for B1
# B9: 75110_06G04A (antibody, V domains shown)
# VH: QVQLLESGPGLVKPSETLSLTCTVSGGSISSYYWSWIRQPAGKGLEWIGRIYISGSTNYNPSLKSRVTMSIDTSENQFSLNLSSVTAADTAVYYCARELERPYYYGMDVWGQGTTVTVSS
# VL: B8 VL with H27Q, A50N, N53T, S72T, H93N, I106F
# notes: as for B1
# B10: 75110_06K03A (antibody, V domains shown)
# VH: B9 VH with L5Q, S31T, Y52N, I53T, N58T, I71V, E75K, N81K, P102Y
# VL: B8 VL with H27Q, A50Y, N53I, S72T, H93S
# notes: as for B1
# B11: 75110_08D24A (antibody, V domains shown)
# VH: B8 VH with T13K, S21T, D31G, Y32F, G41A, S53T, G55E, S56N, F94Y, D101G
# VL: B5 VL with K31N, I42K, D50A, F83I
# notes: as for B1
# B12: 75110_07N04A (antibody, V domains shown)
# VH: QVQLQESGPGLVKPSETLSLTCSVSGVSSTSFYWSWIRQPAGKGLDWIGRIYTSGSTNYNPSLKSRVTMSVDTSKNQFSLKLSSVTAADTAVYYCARDPGYSDAFAIWGQGTMVTVSS
# VL: not shown
# notes: as for B1
# How the values were obtained:
# [1] = molecular target: T1, human CD4 on cells (SKW3 cells; human PBMCs) (human, UniProt P01730 26-458); assay: FACS confirmation, supernatant on human PBMCs;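 note: flow cytometry with hybridoma supernatants incubated on human PBMCs for 30 min at 4 °C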
# T1 construct: whole, on cells; SKW3 CD4 knockout cells served as the negative cell line in the primary screen; also called hCD4; huCD4
# [2] = molecular target: T1, human CD4 on cells (SKW3 cells; human …); assay: FACS confirmation, supernatant on SKW3 cells; background gMFI 2500
# [3] = molecular target: T1, human CD4 on cells (SKW3 cells; human …); assay: FACS confirmation, supernatant on SKW3 cells; background gMFI 3300
# [4] = molecular target: T1, human CD4 on cells (SKW3 cells; human …); assay: FACS primary screen, hybridoma supernatant, SKW3 vs SKW3 CD4 KO cells;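 note: flow cytometry on mixed SKW3 and dye-labeled SKW3 CD4 knockout cells after 30 min at 4 °C with supernatant, ratio of binding signal on parental versus knockout cells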
# [5] = molecular target: T1, human CD4 on cells (SKW3 cells; human …); assay: FACS binning on SKW3 cells; competitor OKT4a; background 5000, max binding 35000
# [6] = molecular target: T1, human CD4 on cells (SKW3 cells; human …); assay: FACS binning on SKW3 cells; competitor OKT4-A488; background 2163, max binding 8200
# [7] = molecular target: T1, human CD4 on cells (SKW3 cells; human …); assay: FACS binning on SKW3 cells; competitor RPA-T4-PE-Dazzle 594; background 783, max binding 15000
# huCD4-HIS = molecular target: T2, huCD4-HIS (human, UniProt P01730 26-390, limits assumed); assay: ELISA binning; competitor ibalizumab; 100 ng/mL huCD4-HIS, anti-HIS HRP; background 45, max binding 3000000
# T2 construct: the ELISA is not described in the text of this stretch; also called human CD4-HIS
Binder,"PBMCs CD4+ gate RL1 binding, anti-mFc 647 [1]",PBMCs CD4+ percent bound of viable [1] [%],"gMFI on SKW3 WT, anti-hu Kappa FITC [2] [gMFI]","gMFI on SKW3 WT, anti-mFc 647 [3] [gMFI]","SKW3 WT vs KO ratio, anti-hKappa-FITC [4]","SKW3 WT vs KO ratio, anti-mFc-647 [4]",OKT4a signal (anti-hu A647) with supernatant [5],OKT4-A488 signal with supernatant [6],RPA-T4-PE-Dazzle 594 signal with supernatant [7],Ibalizumab ELISA binning signal (huCD4-HIS)
B1,142000,32,3410,8910,1.1,2.2,41800,8720,10100,1.21e+06
B2,72100,23,3160,5460,1.3,2.4,34800,8260,15300,2.37e+06
B3,302000,29,6340,22900,2.2,5.9,43300,3330,14400,1.84e+06
B4,276000,29,5300,16600,1.7,4.7,39200,8660,16000,1.98e+06
B5,253000,32,6170,31500,1.7,3.1,44800,7410,15500,1.41e+06
B6,314000,30,5840,19400,2.4,5.7,38400,8890,16200,1.69e+06
B7,89200,27,3980,13400,1.3,2.3,38000,8050,15900,1.98e+06
B8,297000,28,4660,12100,1.9,5,36800,8240,15600,1.35e+06
B9,240000,30,8480,33700,3.3,9.3,30800,9310,16600,1.96e+06
B10,296000,32,8640,33600,2.7,7.5,33200,9140,15800,1.65e+06
B11,278000,30,3570,20100,1.1,4.1,42500,7930,14600,887000
B12,344000,30,6230,30400,2.8,7.8,36100,9010,15500,1.66e+06
